Columns and labels:
AdipoR1 = molecular target: T1, AdipoR1 (Homo sapiens, UniProt Q96A54); experiment: FET3-lacZ (pFET3-397) reporter repression in yeast expressing AdipoR1; assay type: cell-based; details: low levels of AdipoR1 (0.02% galactose)
T1 construct: expressed in transfected cells; host or cells: Saccharomyces cerevisiae BY4742, GAL1-driven pYES260 plasmid
T1 sequence (Q96A54 1-375): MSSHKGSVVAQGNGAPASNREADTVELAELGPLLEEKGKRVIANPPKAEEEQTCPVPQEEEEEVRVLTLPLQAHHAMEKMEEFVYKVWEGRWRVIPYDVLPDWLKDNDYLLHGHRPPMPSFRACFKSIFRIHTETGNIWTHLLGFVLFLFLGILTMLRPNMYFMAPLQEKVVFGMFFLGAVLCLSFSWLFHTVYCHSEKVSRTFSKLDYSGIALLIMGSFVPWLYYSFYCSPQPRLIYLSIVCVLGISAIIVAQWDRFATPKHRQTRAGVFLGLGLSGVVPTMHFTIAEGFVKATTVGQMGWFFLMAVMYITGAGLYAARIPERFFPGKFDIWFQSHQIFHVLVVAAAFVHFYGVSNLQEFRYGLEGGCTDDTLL
From the text: IZH1-4 were cloned into pRS316-GAL1 via gap repair as previously described (Lyons et al., 2004). The triple hemaglutinin epitope (3×HA) tagged construct of the IZH2 gene was generated by replacing the ZRC1 promoter and open reading frame in the YCpZRC1-HA plasmid (MacDiarmid et al., 2002) with those of IZH2. This was accomplished by gap repair of Age I-digested YCpZRC1-HA to generate pIZH2-3×HA. This construct has the IZH2 gene driven by its native promoter and retains the ZRC1 terminator sequence. The native IZH2 promoter was then exchanged with the GAL1 promoter using gap repair of pIZH2-3×HA plasmids cut with EcoN I. AdipoR1 and AdipoR2 were amplified from cDNAs obtained from OpenBiosystems (Accession #: BC010743 and BC051858, respectively). PCR products were cloned into NcoI/BamHI digested pYES260 vector (Melcher, 2000) by gap repair allowing for GAL1-driven expression. Plasmids containing GAL1-driven the TAP (Tandem Affinity Purification) tagged NRG1 and NRG2 constructs were purchased from OpenBiosystems. […]
(§1) Assays and growth conditions. […] Cells were allowed to grow to mid-log phase at which time the activity of the FET3 gene was monitored using a FET3-lacZ promoter-reporter construct. lacZ activities are presented as a percentage of activity seen in untreated cells expressing the appropriate empty expression vector control. […]

AdipoR2 = experiment: FET3-lacZ (pFET3-397) reporter repression in yeast expressing AdipoR2; assay type: cell-based, human
Sequence of AdipoR2 (Q86V24 76-386 limits assumed): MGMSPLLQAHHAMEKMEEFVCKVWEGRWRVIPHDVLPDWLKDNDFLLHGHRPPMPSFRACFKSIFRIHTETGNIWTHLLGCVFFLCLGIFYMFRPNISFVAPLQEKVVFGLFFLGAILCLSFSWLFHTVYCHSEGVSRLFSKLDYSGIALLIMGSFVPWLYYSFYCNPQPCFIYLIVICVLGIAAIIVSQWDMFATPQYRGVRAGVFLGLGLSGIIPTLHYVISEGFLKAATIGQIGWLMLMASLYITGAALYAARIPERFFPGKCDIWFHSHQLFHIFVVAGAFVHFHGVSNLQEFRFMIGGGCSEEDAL
From the text: IZH1-4 were cloned into pRS316-GAL1 via gap repair as previously described (Lyons et al., 2004). The triple hemaglutinin epitope (3×HA) tagged construct of the IZH2 gene was generated by replacing the ZRC1 promoter and open reading frame in the YCpZRC1-HA plasmid (MacDiarmid et al., 2002) with those of IZH2. This was accomplished by gap repair of Age I-digested YCpZRC1-HA to generate pIZH2-3×HA. This construct has the IZH2 gene driven by its native promoter and retains the ZRC1 terminator sequence. The native IZH2 promoter was then exchanged with the GAL1 promoter using gap repair of pIZH2-3×HA plasmids cut with EcoN I. AdipoR1 and AdipoR2 were amplified from cDNAs obtained from OpenBiosystems (Accession #: BC010743 and BC051858, respectively). PCR products were cloned into NcoI/BamHI digested pYES260 vector (Melcher, 2000) by gap repair allowing for GAL1-driven expression. Plasmids containing GAL1-driven the TAP (Tandem Affinity Purification) tagged NRG1 and NRG2 constructs were purchased from OpenBiosystems.
Most experiments were performed in a defined EDTA-containing medium known as low iron medium (LIM) (Eide et al., 1992). Iron-deficiency and repletion were generated by adding either 1 μM or 1 mM of FeCl3, respectively, to LIM. 2% galactose was used to fully induce GAL1-driven gene overexpression. Total sugar concentration was maintained at 2% by the addition of raffinose in those experiments in which the % galactose was modulated to decrease expression levels. Cells were allowed to grow to mid-log phase in LIM and β-galactosidase assays on permeabilized yeast were performed as previously described (Lyons et al., 2000). […]
as §1

FET3 = experiment: FET3-lacZ reporter in wild type yeast carrying empty expression plasmid; assay type: cell-based, Saccharomyces cerevisiae; details: no human PAQR
From the text: Assays and growth conditions. Strains were maintained using standard protocol and grown in synthetic defined (SD) media with the appropriate amino acids to match the auxotrophies of the individual strains. Low Iron Medium (LIM) contains EDTA to limit iron-bioavailability and its composition has been previously described (Kupchak et al., 2007). […] In brief, overnights of cells grown in SD-glucose media were re-inoculated into iron-deficient LIM to induce the expression of FET3. 2% galactose was used as a carbon source to induce full expression of PAQR genes driven by the GAL1 promoter, while 0.05% galactose/1.95% raffinose was used for reduced PAQR expression. All ligands were added to the growth medium upon re-inoculation into LIM. For experiments in which steroids were added as ligands, steroids were added from ethanol stocks and “untreated” controls are actually treated with an equal volume of ethanol to control for vehicle effects. Cells were allowed to grow to mid-log phase at which time the activity of the FET3 gene was monitored using a FET3-lacZ promoter-reporter construct. lacZ activities are presented as a percentage of activity seen in untreated cells expressing the appropriate empty expression vector control. For individual experiments, each data point has been done in triplicate and the error bars represent +/−1 standard deviation. All experiments were performed at least three times and a representative experiment is shown. EC50 values were obtained using the web-based BioDataFit software using sigmoidal curve-fitting. (web site changbioscience.com/stat/ec50.html)

B1: Adiponectin: insulin-sensitizing hormone, agonist of the human adiponectin receptors AdipoR1 and AdipoR2 (protein, UniProt Q15848 19-244, looked up)
Adiponectin: ETTTQGPGVLLPLPKGACTGWMAGIPGHPGHNGAPGRDGRDGTPGEKGEKGDPGLIGPKGDIGETGVPGAEGPRGFPGIQGRKGEPGEGAYVYRSAFSVGLETYVTIPNMPIRFTKIFYNQQNHYDGSTGKFHCNIPGLYYFAYHITVYMKDVKVSLFKKDKAMLFTYDQYQENNVDQASGSVLLHLEVGDQVWLQVYGEGERNGLYADNDNDSTFTGFLLYHDTN
For B1, the “pFET3-397 repression by adiponectin” value (AdipoR1) was “repressed in a dose-dependent manner”, the EC50 (AdipoR2; AdipoR2, FET3 repression in iron-deficient LIM) was 2.4 pM and the “pFET3-397 repression by adiponectin” value (AdipoR2; AdipoR2 in 2% galactose) was “repressed in a dose-dependent manner”. The “effect of ligand on FET3 in cells carrying empty expression plasmid” value (FET3) was “did not respond”.
